PMC6412583

How the values were obtained:
[1] = target: GmZPR3d (soybean (Glycine max)); assay: two-hybrid; quantitative β-gal assay of mated yeast cells with ONPG as substrate, Miller's units from OD420, in triplicate; product in test samples almost 20 h after substrate addition
[2] = target: T (control protein of the yeast two-hybrid kit, pGBKT7-T as printed); assay: as above

| Substance | fold β-Gal activity against GmHD-ZIP III-2::ZPR3b and GmHD-ZIP III-2::ZPR3c [1] | fold β-Gal activity against any of the experimental pairs [2] |
| --- | --- | --- |
| GmHD-ZIP III-2 (natural protein) | 7 fold |  |
| 53 (positive control protein of the yeast two-hybrid kit, pGADT7-53 as printed) (domain or fragment) |  | 14 fold |
